Results from the supplement of paper PMC10567573.

B1: KCNA1 (parent)
chain: LKASMRELGLLIFFLFIGVILFSS
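Also: lentivirally expressed fusions sorted by FACS into six bins by GFP to DsRed ratio, PSI derived from sequencing read proportions per bin multiplied by bin number.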

Variants of: B1
Test: protein stability index of a GFP-peptide fusion (GPS, HEK-293T) (PSI 1-6); higher = more stable
Conditions: c terminus: a fixed tail appended
Variant LKASMREDGLLIFFLFIGVILFSS [L8D] has a protein stability index of 2.32.
With LKASMREEGLLIFFLFIGVILFSS [L8E] the protein stability index was 4.
Work on LKASMREFGLLIFFLFIGVILFSS [L8F] yielded a protein stability index of 2.39.
With LKASMREGGLLIFFLFIGVILFSS [L8G] the protein stability index was 1.65.
Variant LKASMREHGLLIFFLFIGVILFSS [L8H] has a protein stability index of 2.1.
LKASMREIGLLIFFLFIGVILFSS [L8I] showed a protein stability index of 2.27.
LKASMREKGLLIFFLFIGVILFSS [L8K] showed a protein stability index of 2.58.
LKASMREMGLLIFFLFIGVILFSS [L8M] gave a protein stability index of 2.26.
LKASMREPGLLIFFLFIGVILFSS [L8P] showed a protein stability index of 3.22.
LKASMREQGLLIFFLFIGVILFSS [L8Q] gave a protein stability index of 2.55.
Work on LKASMRERGLLIFFLFIGVILFSS [L8R] yielded a protein stability index of 2.8.
Work on LKASMRESGLLIFFLFIGVILFSS [L8S] yielded a protein stability index of 2.08.
With LKASMRETGLLIFFLFIGVILFSS [L8T] the protein stability index was 2.48.
In the case of LKASMREVGLLIFFLFIGVILFSS [L8V], the protein stability index is reported as 2.42.
LKASMREWGLLIFFLFIGVILFSS [L8W] showed a protein stability index of 2.85.
LKASMREYGLLIFFLFIGVILFSS [L8Y] showed a protein stability index of 2.58.
Variant LKASMRELALLIFFLFIGVILFSS [G9A] has a protein stability index of 1.75.
LKASMRELCLLIFFLFIGVILFSS [G9C] gave a protein stability index of 1.29.
For LKASMRELDLLIFFLFIGVILFSS [G9D], the protein stability index was 3.82.
LKASMRELELLIFFLFIGVILFSS [G9E] gave a protein stability index of 4.03.
With LKASMRELFLLIFFLFIGVILFSS [G9F] the protein stability index was 2.07.
LKASMRELHLLIFFLFIGVILFSS [G9H] showed a protein stability index of 1.8.
For LKASMRELILLIFFLFIGVILFSS [G9I], the protein stability index was 2.18.
LKASMRELKLLIFFLFIGVILFSS [G9K] gave a protein stability index of 3.
LKASMRELLLLIFFLFIGVILFSS [G9L] showed a protein stability index of 1.83.
Work on LKASMRELMLLIFFLFIGVILFSS [G9M] yielded a protein stability index of 2.37.
Work on LKASMRELPLLIFFLFIGVILFSS [G9P] yielded a protein stability index of 3.05.
With LKASMRELQLLIFFLFIGVILFSS [G9Q] the protein stability index was 4.69.
LKASMRELRLLIFFLFIGVILFSS [G9R] gave a protein stability index of 2.48.
LKASMRELSLLIFFLFIGVILFSS [G9S] showed a protein stability index of 1.98.
For LKASMRELTLLIFFLFIGVILFSS [G9T], the protein stability index was 1.72.
Work on LKASMRELVLLIFFLFIGVILFSS [G9V] yielded a protein stability index of 1.71.
For LKASMRELWLLIFFLFIGVILFSS [G9W], the protein stability index was 1.54.
LKASMRELYLLIFFLFIGVILFSS [G9Y] gave a protein stability index of 2.34.
LKASMRELGALIFFLFIGVILFSS [L10A] showed a protein stability index of 2.62.
Variant LKASMRELGCLIFFLFIGVILFSS [L10C] has a protein stability index of 2.07.
With LKASMRELGDLIFFLFIGVILFSS [L10D] the protein stability index was 3.28.
In the case of LKASMRELGFLIFFLFIGVILFSS [L10F], the protein stability index is reported as 2.27.
In the case of LKASMRELGGLIFFLFIGVILFSS [L10G], the protein stability index is reported as 4.36.
Variant LKASMRELGHLIFFLFIGVILFSS [L10H] has a protein stability index of 3.23.
Variant LKASMRELGILIFFLFIGVILFSS [L10I] has a protein stability index of 2.42.
Variant LKASMRELGKLIFFLFIGVILFSS [L10K] has a protein stability index of 4.
Work on LKASMRELGMLIFFLFIGVILFSS [L10M] yielded a protein stability index of 3.58.
In the case of LKASMRELGNLIFFLFIGVILFSS [L10N], the protein stability index is reported as 4.61.
With LKASMRELGPLIFFLFIGVILFSS [L10P] the protein stability index was 2.75.
In the case of LKASMRELGQLIFFLFIGVILFSS [L10Q], the protein stability index is reported as 2.94.
LKASMRELGRLIFFLFIGVILFSS [L10R] gave a protein stability index of 2.83.
In the case of LKASMRELGSLIFFLFIGVILFSS [L10S], the protein stability index is reported as 2.77.
LKASMRELGTLIFFLFIGVILFSS [L10T] gave a protein stability index of 3.06.
With LKASMRELGVLIFFLFIGVILFSS [L10V] the protein stability index was 1.23.
LKASMRELGWLIFFLFIGVILFSS [L10W] gave a protein stability index of 2.58.
In the case of LKASMRELGYLIFFLFIGVILFSS [L10Y], the protein stability index is reported as 2.13.
LKASMRELGLAIFFLFIGVILFSS [L11A] gave a protein stability index of 3.12.
LKASMRELGLCIFFLFIGVILFSS [L11C] showed a protein stability index of 4.25.
LKASMRELGLDIFFLFIGVILFSS [L11D] showed a protein stability index of 3.53.
Work on LKASMRELGLEIFFLFIGVILFSS [L11E] yielded a protein stability index of 2.36.
LKASMRELGLFIFFLFIGVILFSS [L11F] showed a protein stability index of 1.74.
Variant LKASMRELGLGIFFLFIGVILFSS [L11G] has a protein stability index of 3.63.
For LKASMRELGLHIFFLFIGVILFSS [L11H], the protein stability index was 2.95.
LKASMRELGLIIFFLFIGVILFSS [L11I] gave a protein stability index of 2.49.
For LKASMRELGLKIFFLFIGVILFSS [L11K], the protein stability index was 3.54.
With LKASMRELGLMIFFLFIGVILFSS [L11M] the protein stability index was 1.73.
With LKASMRELGLPIFFLFIGVILFSS [L11P] the protein stability index was 1.89.
LKASMRELGLRIFFLFIGVILFSS [L11R] showed a protein stability index of 3.65.
In the case of LKASMRELGLTIFFLFIGVILFSS [L11T], the protein stability index is reported as 4.58.
In the case of LKASMRELGLVIFFLFIGVILFSS [L11V], the protein stability index is reported as 1.61.
Work on LKASMRELGLWIFFLFIGVILFSS [L11W] yielded a protein stability index of 2.73.
LKASMRELGLYIFFLFIGVILFSS [L11Y] gave a protein stability index of 3.48.
Variant LKASMRELGLLAFFLFIGVILFSS [I12A] has a protein stability index of 1.87.
Variant LKASMRELGLLCFFLFIGVILFSS [I12C] has a protein stability index of 2.52.
In the case of LKASMRELGLLDFFLFIGVILFSS [I12D], the protein stability index is reported as 2.94.
LKASMRELGLLEFFLFIGVILFSS [I12E] gave a protein stability index of 3.27.
In the case of LKASMRELGLLFFFLFIGVILFSS [I12F], the protein stability index is reported as 2.38.
LKASMRELGLLGFFLFIGVILFSS [I12G] showed a protein stability index of 3.16.
In the case of LKASMRELGLLHFFLFIGVILFSS [I12H], the protein stability index is reported as 3.35.
For LKASMRELGLLKFFLFIGVILFSS [I12K], the protein stability index was 2.8.
LKASMRELGLLLFFLFIGVILFSS [I12L] showed a protein stability index of 2.86.
LKASMRELGLLMFFLFIGVILFSS [I12M] showed a protein stability index of 2.02.
LKASMRELGLLNFFLFIGVILFSS [I12N] gave a protein stability index of 3.05.
LKASMRELGLLPFFLFIGVILFSS [I12P] gave a protein stability index of 1.95.
Variant LKASMRELGLLQFFLFIGVILFSS [I12Q] has a protein stability index of 2.17.
LKASMRELGLLRFFLFIGVILFSS [I12R] gave a protein stability index of 4.06.
Work on LKASMRELGLLSFFLFIGVILFSS [I12S] yielded a protein stability index of 1.31.
For LKASMRELGLLTFFLFIGVILFSS [I12T], the protein stability index was 4.06.
Variant LKASMRELGLLVFFLFIGVILFSS [I12V] has a protein stability index of 1.35.
In the case of LKASMRELGLLWFFLFIGVILFSS [I12W], the protein stability index is reported as 3.17.
Variant LKASMRELGLLYFFLFIGVILFSS [I12Y] has a protein stability index of 3.01.
With LKASMRELGLLIAFLFIGVILFSS [F13A] the protein stability index was 1.57.
LKASMRELGLLIDFLFIGVILFSS [F13D] gave a protein stability index of 3.37.
LKASMRELGLLIEFLFIGVILFSS [F13E] gave a protein stability index of 2.6.
LKASMRELGLLIGFLFIGVILFSS [F13G] showed a protein stability index of 2.98.
LKASMRELGLLIHFLFIGVILFSS [F13H] showed a protein stability index of 3.07.
In the case of LKASMRELGLLIIFLFIGVILFSS [F13I], the protein stability index is reported as 1.77.
In the case of LKASMRELGLLIKFLFIGVILFSS [F13K], the protein stability index is reported as 2.76.
